Assay results as given in patent US20220378887A1 (GENOIMMUNE THERAPEUTICS, published 2022).

B1: STIDESPIFK polypeptide (GLCE; SEQ ID NO: 7) (peptide)
peptide: STIDESPIFK
notes: Synthesized mutant neoantigen peptide; also called high-frequency mutant polypeptide
B2: RTIEQLTLK polypeptide (ARHGEF11; SEQ ID NO: 8) (peptide)
peptide: RTIEQLTLK
notes: as for B1
B3: VVVGAGDVGK polypeptide (KRAS; SEQ ID NO: 15) (peptide)
peptide: VVVGAGDVGK
notes: Synthesized mutant KRAS neoantigen peptide; also called high-frequency mutant polypeptide
B4: TTAPFLSGK polypeptide (CTNNB1; SEQ ID NO: 9) (peptide)
peptide: TTAPFLSGK
notes: as for B1

Biological target: T1, HLA-A*11:01 (MHC-I molecules on the surfaces of T2 cells) (human)
T1 construct: It only names the antibody against 'the corresponding HLA typing (HLA-A*11:01)'; also called HLA molecules
Assay: T2 cell MHC-I stabilisation assay, flow cytometry with FITC anti-HLA-A*11:01 antibody
Protocol: The synthesized polypeptides were added to 2*10⁵ T2 cells, and human β2 micro-globulin (final concentration of 3 μg/ml) was added and cultivated in 24-well plate. The plate was cultured in an incubator (37° C., 5% CO₂) overnight.
200 g of cultured cells was centrifuged for 5 minutes to collect the cells. After washing twice with PBS, the cells were directly incubated with FITC-labeled monoclonal antibody against the corresponding HLA typing (HLA-A*11:01), and maintained at 4° C. for 30 minutes.

Row | Binder | FI (fluorescence index)
1 | B1 | 4.09
2 | B2 | 1.57
3 | B3 | 1.66
4 | B4 | 1.02
